Results reported in patent publication US20230043813A1, “METHODS FOR TARGETED CELL DEPLETION” (The Regents of the University of California, priority 2019, published 2023).

What was measured:
[1] = test system: GFP reporter in HEK-RT1 cells; assay: rapid mammalian genome editing reporter assay (HEK-RT1, GFP disruption); type: cell-based, human
Text: To establish a rapid and quantitative way to reliably assess genome editing efficiency from various CRISPR-Cas constructs in mammalian cells, a fluorescence-based reporter assay was built. […] To quantify this effect, HEK293T cells were stably transduced with a retroviral vector (LMP-Pten.1524) constitutively expressing GFP (Fellmann et al., 2013), and established monoclonal derivatives.
Specifically, inducible monoclonal HEK293T-based genome editing reporter cells, referred to as “HEK-RT1,” were established in a two-step procedure. In the first step, puromycin resistant monoclonal HEK-RT3-4 reporter cells were generated (Park et al., 2018). In brief, HEK293T human embryonic kidney cells were transduced at low-copy with the amphotropic pseudotyped RT3GEPIR-Ren.713 retroviral vector (Fellmann et al., 2013), comprising an all-in-one Tet-On system enabling doxycycline-controlled GFP expression. After puromycin (2.0 μg/ml) selection of transduced HEK239 Ts, 36 clones were isolated and individually assessed for i) growth characteristics, ii) homogeneous morphology, iii) sharp fluorescence peaks of doxycycline (1 μg/ml) inducible GFP expression, iv) relatively low fluorescence intensity to favor clones with single-copy reporter integration, and v) high transfectability.
Since HEK-RT3-4 are puromycin resistant, in the second step, monoclonal HEK-RT1 and analogous sister reporter cell lines were derived by transient transfection of HEK-RT3-4 cells with a pair of vectors encoding Cas9 and guide RNAs targeting puromycin (sgPuro5, sgPuro6), followed by identification of monoclonal derivatives that are puromycin sensitive. In total, eight clones were isolated and individually assessed for i) growth characteristics, ii) homogeneous morphology, iii) doxycycline (1 μg/ml) inducible and reversible GFP fluorescence, and v) puromycin and hygromycin B sensitivity. […] The HEK-RT1 cell line was chosen as rapid mammalian genome editing reporter system for all further assays.
A guide RNA targeting the GFP fluorescence reporter (sgGFP9) was compared to a non-targeting control (sgNT). […] GFP expression in HEK-RT1 reporter cells was induced for 24-48 hour using doxycycline (1 μg/ml; Sigma-Aldrich), at the indicated days post-editing.

[2] = test system: GFP or RFP expression in E. coli MG1655; assay: E. coli CRISPRi GFP/RFP repression assay; type: cell-based; conditions: Cas9-CP199 with protease cleavage site as CP linker
Method: Assays were performed using methods like those described by Oakes et al. (2016).
Endpoint Assay: Cells were picked in biological triplicate into 96 well plates containing 500 μL EZ MOPS plus Carb and CM. Plates were grown in 37° C. shakers for twelve hours. Next, cells were diluted 1:1000 in 500 μL EZ MOPS plus Carb, CM, IPTG and aTc. Two hundred nM aTc was used to induce Cas9-CPs or ProCas9s and 50 μM IPTG levels was used to induce the proteases in a 2 mL deep well blocks and shaken at 750 rpm at 37° C. After an eight-twelve-hour induction and growth period, 20 μL of cells were added to 80 μL of water and put into a 96-well microplate reader (Tecan M1000) at 37° C. and read immediately. Each well was measured for optical density at 600 nm and GFP or RFP fluorescence. GFP expression was normalized by dividing it with OD600. In the case of the time course assays, 150 μL of the 1:1000 dilution was used and placed into a black walled clear bottom plate (3631-Corning) and directly into the Tecan M1000 for a 130× 600 s kinetic cycle of reading. For E. coli single cell analysis, cells from the endpoint time course were run on a Sony SH800 to capture 100,000 events per sample.

WNV protease = target: T1, WNV protease (Kunjin virus, UniProt P14335); assay: immunoblot of ProCas9Flavi activation in HEK293T; type: cell-based, human; conditions: HEK293T co-transfected with WNV protease
T1 construct: expressed in transfected cells; host or cells: HEK293T (293FT)
T1 sequence (P14335 1506-2124): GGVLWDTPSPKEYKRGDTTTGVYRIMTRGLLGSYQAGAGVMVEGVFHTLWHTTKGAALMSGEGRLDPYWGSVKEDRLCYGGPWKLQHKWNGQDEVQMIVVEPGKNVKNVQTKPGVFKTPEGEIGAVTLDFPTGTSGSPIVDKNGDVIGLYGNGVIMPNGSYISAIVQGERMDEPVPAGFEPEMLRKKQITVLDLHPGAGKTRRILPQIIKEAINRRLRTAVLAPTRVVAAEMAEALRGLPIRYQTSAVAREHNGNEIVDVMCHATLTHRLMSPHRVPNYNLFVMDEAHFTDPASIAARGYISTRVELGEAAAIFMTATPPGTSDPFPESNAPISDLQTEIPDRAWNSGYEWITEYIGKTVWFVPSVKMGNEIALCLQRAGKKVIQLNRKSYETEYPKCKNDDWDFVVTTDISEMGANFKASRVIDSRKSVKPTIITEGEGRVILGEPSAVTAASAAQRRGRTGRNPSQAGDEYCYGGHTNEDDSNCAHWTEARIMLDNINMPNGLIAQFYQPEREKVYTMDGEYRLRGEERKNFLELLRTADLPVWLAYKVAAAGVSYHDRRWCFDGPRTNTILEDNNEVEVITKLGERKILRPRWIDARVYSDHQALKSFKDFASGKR
T1 sequence (P14335 1375-1505): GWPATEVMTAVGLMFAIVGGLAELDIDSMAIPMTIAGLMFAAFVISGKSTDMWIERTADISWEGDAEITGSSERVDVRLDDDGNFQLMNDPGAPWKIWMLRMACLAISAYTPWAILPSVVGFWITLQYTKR
Method: HEK293T (293FT; Thermo Fisher Scientific) were co-transfected with the indicated plasmids expressing Cas9-wt or ProCas9-Flavi and plasmids expressing dTEV or WNV protease. HEK293T cells were split to reach a confluency of 70%-90% at time of transfection. For transfections in 6-well plates, 1 μg Cas9-sgRNA vector and 0.75 μg protease vector (if applicable) were mixed in 0.4 mL Opti-MEM, followed by addition of 5.25 μg polyethylenimine (PEI; Polysciences #23966). After 20-30 min incubation at room temperature, the transfection reactions were dispersed over the HEK293T cells. Media was changed 12-hour post-transfection. At 36-hour post-transfection, HEK293T were washed in ice-cold PBS and scraped from the plates. Cell pellets were lysed in Laemmli buffer (62.5 mMTris-HCl pH 6.8, 10% glycerol, 2% SDS, 5% 2-mercaptoethanol). Equal amounts of protein were separated on 4%-20% Mini-PROTEAN TGX gels (Bio-Rad, #456-1095) and transferred to 0.2 μm PVDF membranes (Bio-Rad, #162-0177). Blots were blocked in 5% milk in TBST 0.1% (TBS+[…]) for 1 hour; all antibodies were incubated in 5% milk in TBST 0.1% at 4° C. overnight; blots were washed in TBST 0.1%. The abundance of b-actin (ACTB) was monitored to ensure equal loading. […]

PCSK9 locus = assay: editing at the endogenous PCSK9 locus (T7E1 assay, TIDE); type: cell-based, human; conditions: guide sgPCSK9-4, WNV protease vs dTEV; A549 and HAP1
Method: Unless otherwise noted, error bars indicate the standard deviation of triplicates, and significance was assessed by comparing samples to their respective controls using unpaired, two-tailed t tests (alpha=0.05). Genome editing quantification using TIDE was carried out as recommended (Brinkman et al., 2014). In brief, indels ranging from −10 to +10 nucleotides were quantified. Parental cells were used as reference for normalization. When reporting TIDE editing efficiencies, only indels with p values <0.01 in at least one replicate were considered true.

Molecule	GFP disruption ([1]; transient transfection, with active or deactivated proteases)	ProCas9 activation by co-expressed viral proteases [2]	activation (cleavage into two subunits) by immunoblot (WNV protease)	genome editing ([1]; stable expression of WNV protease, out to 8 days)	genome editing efficiency after transient protease transfection ([1]; stably integrated ProCas9, ZIKV, WNV proteases, mTagBFP2-positive cells)	genome editing ([1]; stably transduced WNV protease (FIG. 4F))	protease-sensitive editing at the PCSK9 locus (T7E1) (PCSK9 locus)
ProCas9Flavi: ProCas9 with WNV linker sequence KQKKR/GGK, Flavivirus protease-sensitive caged Cas9 (SEQ ID NO:50) (protein) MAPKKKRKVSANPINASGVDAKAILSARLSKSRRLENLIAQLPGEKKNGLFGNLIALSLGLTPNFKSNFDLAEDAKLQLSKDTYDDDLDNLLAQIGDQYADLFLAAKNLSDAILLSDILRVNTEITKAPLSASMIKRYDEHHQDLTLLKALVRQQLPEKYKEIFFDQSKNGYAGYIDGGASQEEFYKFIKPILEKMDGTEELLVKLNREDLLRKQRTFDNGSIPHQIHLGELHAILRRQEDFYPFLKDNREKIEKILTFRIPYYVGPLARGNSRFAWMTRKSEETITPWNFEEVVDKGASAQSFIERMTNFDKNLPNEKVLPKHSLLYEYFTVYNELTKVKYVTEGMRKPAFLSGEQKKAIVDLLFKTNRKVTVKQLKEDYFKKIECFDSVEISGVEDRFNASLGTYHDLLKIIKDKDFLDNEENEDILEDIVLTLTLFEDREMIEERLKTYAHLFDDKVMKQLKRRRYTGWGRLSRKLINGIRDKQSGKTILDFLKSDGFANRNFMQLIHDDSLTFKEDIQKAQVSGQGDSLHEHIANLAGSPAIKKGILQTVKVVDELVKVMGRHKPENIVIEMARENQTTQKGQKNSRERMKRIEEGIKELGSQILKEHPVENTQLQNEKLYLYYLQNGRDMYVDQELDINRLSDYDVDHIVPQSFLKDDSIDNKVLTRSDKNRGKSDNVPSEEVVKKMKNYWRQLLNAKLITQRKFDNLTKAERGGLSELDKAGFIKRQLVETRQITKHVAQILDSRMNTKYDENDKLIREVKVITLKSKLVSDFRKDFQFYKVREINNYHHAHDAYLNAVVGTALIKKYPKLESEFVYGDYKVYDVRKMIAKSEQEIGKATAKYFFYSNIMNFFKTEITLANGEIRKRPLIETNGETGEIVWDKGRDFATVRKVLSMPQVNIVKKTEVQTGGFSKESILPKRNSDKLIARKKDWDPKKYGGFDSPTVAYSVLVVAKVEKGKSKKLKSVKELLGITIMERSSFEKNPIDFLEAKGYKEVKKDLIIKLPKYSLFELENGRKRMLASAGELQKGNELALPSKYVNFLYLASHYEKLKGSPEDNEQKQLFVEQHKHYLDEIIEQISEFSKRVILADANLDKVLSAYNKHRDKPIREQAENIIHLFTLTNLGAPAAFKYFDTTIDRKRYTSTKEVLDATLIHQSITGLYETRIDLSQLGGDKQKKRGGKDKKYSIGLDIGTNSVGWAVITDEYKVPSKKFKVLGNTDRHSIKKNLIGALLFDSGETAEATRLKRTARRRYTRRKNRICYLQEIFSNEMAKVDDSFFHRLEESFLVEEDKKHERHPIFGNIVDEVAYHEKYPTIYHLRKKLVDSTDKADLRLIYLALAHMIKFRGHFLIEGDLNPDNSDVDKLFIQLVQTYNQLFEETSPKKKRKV	GFP disruption only in the presence of the active proteases	activated by NS2B-NS3 proteases from both Zika and WNV	vast majority of vigilant ProCas9Flavi was activated and observed as two distinct subunits				
EF1a-ProCas9Flavi: ProCas9Flavi expressed from the strong full-length EF1a promoter, stably integrated lentiviral vector (protein) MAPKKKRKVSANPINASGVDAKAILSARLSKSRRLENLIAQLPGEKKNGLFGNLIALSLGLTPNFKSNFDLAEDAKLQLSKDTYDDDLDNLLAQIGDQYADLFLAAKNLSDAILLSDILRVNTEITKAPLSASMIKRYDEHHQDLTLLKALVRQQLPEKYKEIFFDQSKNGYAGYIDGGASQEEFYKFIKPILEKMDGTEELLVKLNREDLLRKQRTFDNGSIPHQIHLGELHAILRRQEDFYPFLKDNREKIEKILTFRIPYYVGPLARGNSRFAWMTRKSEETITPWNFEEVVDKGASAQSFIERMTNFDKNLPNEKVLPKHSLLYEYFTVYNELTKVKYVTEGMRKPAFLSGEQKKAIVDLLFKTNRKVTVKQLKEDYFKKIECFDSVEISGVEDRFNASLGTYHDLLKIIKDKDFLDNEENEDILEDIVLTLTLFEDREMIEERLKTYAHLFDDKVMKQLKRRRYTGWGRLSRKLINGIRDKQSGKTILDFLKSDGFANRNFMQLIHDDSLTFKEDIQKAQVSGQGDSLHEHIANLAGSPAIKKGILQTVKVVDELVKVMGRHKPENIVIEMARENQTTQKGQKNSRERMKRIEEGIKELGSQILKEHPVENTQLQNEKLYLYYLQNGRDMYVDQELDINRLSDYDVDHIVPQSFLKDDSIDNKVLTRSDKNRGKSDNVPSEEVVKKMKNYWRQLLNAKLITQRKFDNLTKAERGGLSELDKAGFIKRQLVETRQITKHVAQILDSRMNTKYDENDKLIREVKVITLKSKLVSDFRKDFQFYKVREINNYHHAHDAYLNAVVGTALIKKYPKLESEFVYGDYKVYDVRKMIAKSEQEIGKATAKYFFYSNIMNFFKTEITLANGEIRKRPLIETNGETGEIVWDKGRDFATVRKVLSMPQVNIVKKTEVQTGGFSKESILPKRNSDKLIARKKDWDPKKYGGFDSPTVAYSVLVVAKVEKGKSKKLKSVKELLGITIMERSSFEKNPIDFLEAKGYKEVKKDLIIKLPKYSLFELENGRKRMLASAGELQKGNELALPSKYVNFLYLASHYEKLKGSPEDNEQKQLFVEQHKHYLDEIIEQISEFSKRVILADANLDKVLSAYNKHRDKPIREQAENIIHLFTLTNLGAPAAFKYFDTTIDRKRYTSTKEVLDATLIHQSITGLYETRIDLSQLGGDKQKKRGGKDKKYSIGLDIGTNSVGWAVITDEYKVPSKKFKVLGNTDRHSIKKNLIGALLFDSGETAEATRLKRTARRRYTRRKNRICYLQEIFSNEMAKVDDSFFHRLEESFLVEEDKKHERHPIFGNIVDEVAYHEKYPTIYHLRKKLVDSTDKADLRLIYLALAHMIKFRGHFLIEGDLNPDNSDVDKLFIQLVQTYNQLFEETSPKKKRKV				about 35%	highest genome editing efficiency	over 25%	clear genome editing in the presence of WNV protease
